For series [1], the target named is T1, LARP1 LaM (UniProt Q6PKG0-3 323-410). Nature of the series: ITC; 10 mM MES pH 6.3, 100 mM NaCl, 1 mM TCEP (HPLC and NMR buffer; ITC buffer not stated separately); ITC 293 K, NMR 25 C. A general note: Isothermal titration calorimetry measures the heat released or taken up as one component is titrated into another.
Series [2] concerns the target T1, LARP1 LaM. Nature of the series: crystal structure; 1.15 A; 10 mM MES pH 6.3, 100 mM NaCl, 1 mM TCEP (HPLC and NMR buffer; ITC buffer not stated separately); ITC 293 K, NMR 25 C.
Series [3] addresses T1, LARP1 LaM. Nature of the series: ITC; 10 mM MES pH 6.3, 100 mM NaCl, 1 mM TCEP (HPLC and NMR buffer; ITC buffer not stated separately); ITC 293 K, NMR 25 C. The source holds these as a separate data set.
The target in another series is LARP1 LaM-RRM region (UniProt Q6PKG0-3 323-509). Described as above. The conditions noted are these: protein: recombinant.
Series [4] addresses LARP1 323-509 Y336A/F348A (UniProt Q6PKG0-3 323-509, Y336A;F348A). Described as above. The conditions noted are these: protein: recombinant.
In series [5] the target is LARP1 323-509 Q333A/F348A (UniProt Q6PKG0-3 323-509, Q333A;F348A). The series is described as above. The conditions noted are these: protein: recombinant.
Another series concerns the target LARP1 LaM Y336A/F348A (UniProt Q6PKG0-3 323-410, Y336A;F348A). Described as above.
A further series deals with LARP1 LaM Q333A/F348A (UniProt Q6PKG0-3 323-410, Q333A;F348A). The description is as above.
A further series concerns the target LARP1 LaM Q333A (UniProt Q6PKG0-3 323-410, Q333A). The series is described as above.
In another series the target is LARP1 LaM R345A (UniProt Q6PKG0-3 323-410, R345A). The description is as above.

In general, Kd refers to a measure of binding affinity in units of concentration.

With ACAAAA (ssRNA) [ACA4], the binding result with LARP1 LaM [1] is given as “binds”.
In the case of AAA (ssRNA) [A3], the binding result with LARP1 LaM [2] is reported as “binds”.
In turn, AAAACA (ssRNA) [A4CA] came in with a binding signal in the series with LARP1 LaM [3] of about 10 fold weaker than A6.
AAAAAA (ssRNA) [A6]: the binding result with LARP1 LaM [1] is “binds”.
On to CCCCCC (ssRNA) [C6], for which, in the series with LARP1 LaM [3], the binding signal was over 200 fold weaker than A6.
Consider AAAAAAAAAAAAAAAAAAAAAAAAA (ssRNA) [A25], for which the Kd with LARP1 LaM-RRM region is about 200 nM; with LARP1 LaM [1], under 1000 nM. Also, the binding result in series [4] and in [5] was “no binding” in each case.
UUUUUU (ssRNA) [U6] gave a binding signal in the series with LARP1 LaM [3] of about 10 fold weaker than A6.
Still for that read-out and setting: in the case of AAAAAC (ssRNA) [A5C] it was about 10 fold weaker than A6.
Regarding AAAAAAAAAAA (ssRNA) [A11], the binding result in the series with LARP1 LaM [1] was “binds”.
GGGGGG (ssRNA) [G6] came in with a binding signal in the series with LARP1 LaM [3] of about 10 fold weaker than A6.
In the case of AAACAA (ssRNA) [A3CA2], in the series with LARP1 LaM [1], the binding result is on record as “binds”.
For AAAA (ssRNA) [A4], the binding result with LARP1 LaM Y336A/F348A is given as “no binding”; with LARP1 LaM [1], “binds”; in the series with LARP1 LaM Q333A/F348A, “no binding”. For the same molecule, the binding signal with LARP1 LaM Q333A is ~20 fold weaker than wild type; in the series with LARP1 LaM R345A, ~2 fold weaker than wild type.
Take AACAAA (ssRNA) [A2CA3]: the binding result in the series with LARP1 LaM [1] is “binds”.
For AAAAAA (ssRNA, 3' phosphate) [A5A(p)], the binding signal with LARP1 LaM [3] was about 200 fold weaker than A6.
For AAAUAA (ssRNA) [A3UA2], in the series with LARP1 LaM [1], the binding result is listed as “binds”.
